From publication PMC5777972 (Protein & Cell, 2017) come the findings set out here.

Test [1] addresses T1, PD-L1 extracellular domain fragment (from F19 to R238) (Homo sapiens, UniProt Q9NZQ7).
T1 construct: PD-L1 extracellular domain fragment, F19 to R238; probably the start methionine of the E. coli construct (surmise); also called two-Ig-domain PD-L1
In words: SPR; BIAcore T100, CM5 chip, about 1000 RU of PD-L1 immobilised, scFv flowed at 5 nM to 80 nM, 25 °C, HBS-EP (150 mM NaCl, 10 mM HEPES, pH 7.4, 0.005% Tween-20), 1:1 Langmuir model. To be noted: both partners purified. (SPR reads the build-up and loss of mass on a sensor chip optically.)

Test [2] concerns the target T2, two-Ig-domain PD-L1 (Homo sapiens, UniProt Q9NZQ7).
T2 construct: PD-L1, the two Ig domains (IgV and the second Ig domain)
In words: SPR; PD-L1 protein immobilised on the chip, scFvs of the anti-PD-L1 MAbs flowed through; BIAcore T100. Particulars: both partners purified.

T1 sequence (Q9NZQ7 19-238): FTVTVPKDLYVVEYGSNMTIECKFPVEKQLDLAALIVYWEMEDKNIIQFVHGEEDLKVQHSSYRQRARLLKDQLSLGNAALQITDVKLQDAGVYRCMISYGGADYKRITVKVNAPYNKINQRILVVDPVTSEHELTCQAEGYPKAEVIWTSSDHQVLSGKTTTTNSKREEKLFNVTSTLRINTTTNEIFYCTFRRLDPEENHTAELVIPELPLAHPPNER
T2 sequence (Q9NZQ7 19-238): as above

B1: avelumab-scFv (scFv, V domains shown)
VH: EVQLLESGGGLVQPGGSLRLSCAASGFTFSSYIMMWVRQAPGKGLEWVSSIYPSGGITFYADTVKGRFTISRDNSKNTLYLQMNSLRAEDTAVYYCARIKLGTVTTVDYWGQGTLVTVSS
VL: QSALTQPASVSGSPGQSITISCTGTSSDVGGYNYVSWYQQHPGKAPKLMIYDVSNRPSGVSNRFSGSKSGNTASLTISGLQAEDEADYYCSSYTSSSTRVFGTGTKVTVL
notes: VL of avelumab; avelumab-scFv 'obtained as durvalumab-scFv'; VH of avelumab; Order VL-linker-VH is stated for durvalumab-scFv only; also called avalumab-scFv
As usually defined, the koff is the rate constant with which the complex falls apart. High values mean a short-lived complex, low ones a long-lived complex. For orientation: kon means the second-order rate constant of association. A higher kon goes with fast association. In test [1], B1 yielded a koff of 7.53e-05 s⁻¹ and a kon of 1.61e+06 M⁻¹ s⁻¹.

B2: scFv of avelumab (scFv, V domains shown)
VH: B1 VH
VL: B1 VL
notes: VH and VL of avelumab as in the cited complex with PD-L1, PDB 5GRJ; The parent antibody is IgG1; the scFv was used for SPR; Its preparation may be told in the supplementary information
The Kd is a measure of binding affinity in units of concentration. High values mean weaker binding, low ones tighter binding. On to B2, for which binding in test [2] was characterised by a dissociation constant (Kd) of 0.0467 nM.
